Data reported in paper doi:10.1101/207886.

Target: MBP-fused Cas3 (E. coli) (UniProt P38036)
Assay: single-molecule TIRF fluorescence

Sequence of UniProt P38036 (P38036 whole entry, the tested form may be a part): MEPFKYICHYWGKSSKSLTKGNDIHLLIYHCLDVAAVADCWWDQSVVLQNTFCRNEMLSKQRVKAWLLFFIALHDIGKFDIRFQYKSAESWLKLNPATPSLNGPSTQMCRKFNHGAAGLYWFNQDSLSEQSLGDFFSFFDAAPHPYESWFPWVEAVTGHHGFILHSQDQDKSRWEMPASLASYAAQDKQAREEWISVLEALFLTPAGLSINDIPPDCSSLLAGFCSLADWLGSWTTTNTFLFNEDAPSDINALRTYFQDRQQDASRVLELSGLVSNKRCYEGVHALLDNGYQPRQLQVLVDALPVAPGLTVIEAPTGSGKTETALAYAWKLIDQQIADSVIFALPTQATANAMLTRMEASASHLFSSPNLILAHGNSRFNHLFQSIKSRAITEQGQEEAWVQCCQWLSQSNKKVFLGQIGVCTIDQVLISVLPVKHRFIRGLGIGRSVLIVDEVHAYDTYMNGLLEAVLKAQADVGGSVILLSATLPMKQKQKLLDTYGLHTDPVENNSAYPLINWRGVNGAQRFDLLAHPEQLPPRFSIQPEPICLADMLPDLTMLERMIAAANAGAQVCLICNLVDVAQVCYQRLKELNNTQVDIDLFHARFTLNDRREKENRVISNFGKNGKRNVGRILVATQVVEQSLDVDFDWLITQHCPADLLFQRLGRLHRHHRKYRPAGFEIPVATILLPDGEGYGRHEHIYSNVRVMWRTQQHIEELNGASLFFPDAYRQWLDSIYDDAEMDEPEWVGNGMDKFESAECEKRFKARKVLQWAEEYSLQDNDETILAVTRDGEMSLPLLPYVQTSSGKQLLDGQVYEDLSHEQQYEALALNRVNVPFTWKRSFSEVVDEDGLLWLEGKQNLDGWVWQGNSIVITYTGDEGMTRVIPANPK

Cascade complex (RNA-guided surveillance complex), bound to dye-labelled target DNA (from UniProt Q46901 1-502)
dwell-time: 1.63 s
